Laboratory results from the supplement of paper PMC9112550, “Optimization of the antimicrobial peptide Bac7 by deep mutational scanning” (BMC Biology, 2022).

Tested on: Escherichia coli TOP10
Assay: shrunken log2 fold change of peptide-encoding DNA abundance (4.5 h post-induction vs induction); higher = less antimicrobial activity (less host growth inhibition)
Conditions: time post-induction: 4.5 h; library: site-saturation at positions 5, 18, 19, 20
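Further: peptides expressed intracellularly from a pBAD plasmid library in pooled LB shake-flask culture, induced with 0.3% L-arabinose, DNA abundance read by NGS, three biological replicates, DESeq2 with apeglm shrinkage.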

RRIRIRPPRLPRPRPRPAQYPRP
shrunken log2 fold change: -0.13

RRIRIRPPRLPRPRPRPARDPRP
shrunken log2 fold change: -0.169

RRIRIRPPRLPRPRPRPARLPRP
shrunken log2 fold change: -0.0547

RRIRIRPPRLPRPRPRPATAPRP
shrunken log2 fold change: 0.0897

RRIRIRPPRLPRPRPRPATCPRP
shrunken log2 fold change: -0.349

RRIRIRPPRLPRPRPRPATEPRP
shrunken log2 fold change: 0.421

RRIRIRPPRLPRPRPRPAVDPRP
shrunken log2 fold change: -0.0902

RRIRIRPPRLPRPRPRPAVHPRP
shrunken log2 fold change: -0.145

RRIRIRPPRLPRPRPRPAWGPRP
shrunken log2 fold change: 0.0665

RRIRIRPPRLPRPRPRPAWLPRP
shrunken log2 fold change: 0.272

RRIRIRPPRLPRPRPRPAYKPRP
shrunken log2 fold change: -1.89

RRIRIRPPRLPRPRPRPAYSPRP
shrunken log2 fold change: -0.534

RRIRIRPPRLPRPRPRPCCAPRP
shrunken log2 fold change: -0.172

RRIRIRPPRLPRPRPRPCCQPRP
shrunken log2 fold change: -0.0291

RRIRIRPPRLPRPRPRPCCSPRP
shrunken log2 fold change: -1.1

RRIRIRPPRLPRPRPRPCGVPRP
shrunken log2 fold change: -0.153

RRIRIRPPRLPRPRPRPCHDPRP
shrunken log2 fold change: -0.223

RRIRIRPPRLPRPRPRPCIEPRP
shrunken log2 fold change: -0.112

RRIRIRPPRLPRPRPRPCKAPRP
shrunken log2 fold change: -0.181

RRIRIRPPRLPRPRPRPCKTPRP
shrunken log2 fold change: -0.168

RRIRIRPPRLPRPRPRPCMAPRP
shrunken log2 fold change: -0.335

RRIRIRPPRLPRPRPRPCNNPRP
shrunken log2 fold change: -0.457

RRIRIRPPRLPRPRPRPCNRPRP
shrunken log2 fold change: -0.425

RRIRIRPPRLPRPRPRPCNYPRP
shrunken log2 fold change: -0.103

RRIRIRPPRLPRPRPRPCPNPRP
shrunken log2 fold change: -0.159

RRIRIRPPRLPRPRPRPCPRPRP
shrunken log2 fold change: -0.185

RRIRIRPPRLPRPRPRPCPSPRP
shrunken log2 fold change: -0.186

RRIRIRPPRLPRPRPRPCQLPRP
shrunken log2 fold change: -0.812

RRIRIRPPRLPRPRPRPCRRPRP
shrunken log2 fold change: -0.23

RRIRIRPPRLPRPRPRPCSCPRP
shrunken log2 fold change: -0.446

RRIRIRPPRLPRPRPRPCSLPRP
shrunken log2 fold change: -0.172

RRIRIRPPRLPRPRPRPCSYPRP
shrunken log2 fold change: -0.176

RRIRIRPPRLPRPRPRPCVIPRP
shrunken log2 fold change: -0.0683

RRIRIRPPRLPRPRPRPCVRPRP
shrunken log2 fold change: -0.208

RRIRIRPPRLPRPRPRPCWAPRP
shrunken log2 fold change: -0.283

RRIRIRPPRLPRPRPRPCWKPRP
shrunken log2 fold change: 0.00408

RRIRIRPPRLPRPRPRPCYAPRP
shrunken log2 fold change: -0.68

RRIRIRPPRLPRPRPRPCYMPRP
shrunken log2 fold change: -0.49

RRIRIRPPRLPRPRPRPCYWPRP
shrunken log2 fold change: -0.131

RRIRIRPPRLPRPRPRPCYYPRP
shrunken log2 fold change: -0.272

RRIRIRPPRLPRPRPRPDAAPRP
shrunken log2 fold change: 0.432

RRIRIRPPRLPRPRPRPDAEPRP
shrunken log2 fold change: 0.874

RRIRIRPPRLPRPRPRPDAPPRP
shrunken log2 fold change: 0.14

RRIRIRPPRLPRPRPRPDCCPRP
shrunken log2 fold change: 0.000204

RRIRIRPPRLPRPRPRPDCDPRP
shrunken log2 fold change: -0.242

RRIRIRPPRLPRPRPRPDEAPRP
shrunken log2 fold change: 0.0301

RRIRIRPPRLPRPRPRPDEYPRP
shrunken log2 fold change: 0.0287

RRIRIRPPRLPRPRPRPDGRPRP
shrunken log2 fold change: -0.13

RRIRIRPPRLPRPRPRPDGVPRP
shrunken log2 fold change: -0.0166

RRIRIRPPRLPRPRPRPDHKPRP
shrunken log2 fold change: -0.413

RRIRIRPPRLPRPRPRPDIFPRP
shrunken log2 fold change: -0.828

RRIRIRPPRLPRPRPRPDIIPRP
shrunken log2 fold change: -0.0935

RRIRIRPPRLPRPRPRPDISPRP
shrunken log2 fold change: -0.0405

RRIRIRPPRLPRPRPRPDKEPRP
shrunken log2 fold change: -0.0239

RRIRIRPPRLPRPRPRPDLAPRP
shrunken log2 fold change: -0.169

RRIRIRPPRLPRPRPRPDLFPRP
shrunken log2 fold change: -0.103

RRIRIRPPRLPRPRPRPDLIPRP
shrunken log2 fold change: -0.217

RRIRIRPPRLPRPRPRPDMNPRP
shrunken log2 fold change: -0.146

RRIRIRPPRLPRPRPRPDMSPRP
shrunken log2 fold change: -0.00804

RRIRIRPPRLPRPRPRPDMTPRP
shrunken log2 fold change: -0.01

RRIRIRPPRLPRPRPRPDNCPRP
shrunken log2 fold change: -0.162

RRIRIRPPRLPRPRPRPDNTPRP
shrunken log2 fold change: -0.947

RRIRIRPPRLPRPRPRPDPQPRP
shrunken log2 fold change: -0.186

RRIRIRPPRLPRPRPRPDQPPRP
shrunken log2 fold change: 0.022

RRIRIRPPRLPRPRPRPDQTPRP
shrunken log2 fold change: 0.000407

RRIRIRPPRLPRPRPRPDSKPRP
shrunken log2 fold change: -0.325

RRIRIRPPRLPRPRPRPDSPPRP
shrunken log2 fold change: -0.0466

RRIRIRPPRLPRPRPRPDTWPRP
shrunken log2 fold change: -0.239

RRIRIRPPRLPRPRPRPDVVPRP
shrunken log2 fold change: -0.0365

RRIRIRPPRLPRPRPRPDWRPRP
shrunken log2 fold change: 0.194

RRIRIRPPRLPRPRPRPDYPPRP
shrunken log2 fold change: -0.584

RRIRIRPPRLPRPRPRPEAKPRP
shrunken log2 fold change: 0.0733

RRIRIRPPRLPRPRPRPEARPRP
shrunken log2 fold change: 0.312

RRIRIRPPRLPRPRPRPECCPRP
shrunken log2 fold change: 0.0559

RRIRIRPPRLPRPRPRPECIPRP
shrunken log2 fold change: -0.0632
